Reference: publication PMC9775220, “Distal Mutations Shape Substrate-Binding Sites during Evolution of a Metallo-Oxidase into a Laccase” (ACS Catalysis, 2022)
Substitutions are numbered along the chain they refer to. In names and notes the source's numbering stands.

Substrate: CCn1c(=NN=c2sc3cc(S(=O)(=O)O)ccc3n2CC)sc2cc(S(=O)(=O)O)ccc21
Test: purified protein
Type: biochemical, Aquifex aeolicus
Settings: pH 4, 40 °C
[1] = 2F4-loop 5 (Met-loop cut to five residues)

B1: McoA (wild type) (Aquifex aeolicus VF5; F55S/I199T/I441L/M449T/P58S/R471G) (protein)
chain: LSKQSLNIPGYSLFSDGQRVSITAKWTTLEVIPGKSTDMLVYEIDNEYNPVIFLRKGQTFSADFVNNSGEDSIIHWHGFRAPWKSDGHPYYAVKDGETYSYPDFTIIDRSGTYFYHPHPHGRTGYQVYYGLAGMIIIEDEDEDNLKQALDLEYGVTDIPLIIQDKTFDSSGQLVYNPMGHMGFWGDTILVNLTPNPYMDVERKIYRFRILNGSNARPYRLALLRGNQRMRFWVIGVEGGLLDTPKEVNEILVAPGERIDILVDFRDASVNDVIKLYNFPHNLIGMGMIGMRMGMGMERGMGMGNGMNMDMGMADNSEFEVMEFRVTKDSAYDKSIPQRLSEVTPINTDGAQVQRITLGMRRMVFTINGETWEDGYANPQDINNPKVLFEQNNGDVVILEYVNNTGTYHPMHIHGFQFQVLERSLGPLGATDLGWKDTVIVAPMETVRIAVDMSHPYNEHQIYLLHCHILEHHDEGMMVNYRVNA
notes: 43-residue N-terminal Tat signal peptide removed in 2B3wsp and the shuffling parents (stated for wild type); expressed in E. coli Tuner delta-cueO from pET-21a(+); purified, Cu-loaded in vitro; monomer
- Km (evolved variant 2F4): 1500 ± 400 µM
- kcat (evolved variant 2F4): 273 ± 9 s⁻¹

B2: McoA (wild type) (Aquifex aeolicus VF5; DEL329-352/F55S/I199T/I441L/M449T/P58S/R471G) (protein)
chain: LSKQSLNIPGYSLFSDGQRVSITAKWTTLEVIPGKSTDMLVYEIDNEYNPVIFLRKGQTFSADFVNNSGEDSIIHWHGFRAPWKSDGHPYYAVKDGETYSYPDFTIIDRSGTYFYHPHPHGRTGYQVYYGLAGMIIIEDEDEDNLKQALDLEYGVTDIPLIIQDKTFDSSGQLVYNPMGHMGFWGDTILVNLTPNPYMDVERKIYRFRILNGSNARPYRLALLRGNQRMRFWVIGVEGGLLDTPKEVNEILVAPGERIDILVDFRDASVNDVIKLYNFPHNLIGMMGMADNSEFEVMEFRVTKDSAYDKSIPQRLSEVTPINTDGAQVQRITLGMRRMVFTINGETWEDGYANPQDINNPKVLFEQNNGDVVILEYVNNTGTYHPMHIHGFQFQVLERSLGPLGATDLGWKDTVIVAPMETVRIAVDMSHPYNEHQIYLLHCHILEHHDEGMMVNYRVNA
notes: as for B1
- Km [1]: 3800 ± 600 µM
- kcat [1]: 133 ± 20 s⁻¹

B3: McoA (wild type) (Aquifex aeolicus VF5) (protein)
chain: B1 chain with S12F, S15P, T156I, L398I, T406M, G428R
notes: as for B1
- Km: 1300 ± 200 µM
- kcat: 25 ± 3 s⁻¹

B4: McoA (wild type) (Aquifex aeolicus VF5; R471G) (protein)
chain: B1 chain with S12F, S15P, T156I, L398I, T406M
notes: as for B1
- Km (wild-type background): 2300 ± 200 µM
- kcat (wild-type background): 98 ± 4 s⁻¹

B5: McoA (wild type) (Aquifex aeolicus VF5; F55S/I199T/I441L/M449T/P58S) (protein)
chain: B1 chain with G428R
notes: as for B1
- Km (reversion G471R in 2F4): 6000 ± 1000 µM
- kcat (reversion G471R in 2F4): 235 ± 9 s⁻¹

B6: McoA (wild type) (Aquifex aeolicus VF5; M449T) (protein)
chain: B1 chain with S12F, S15P, T156I, L398I, G428R
notes: as for B1
- Km (wild-type background): 1000 ± 100 µM
- kcat (wild-type background): 27 ± 1 s⁻¹

B7: McoA (wild type) (Aquifex aeolicus VF5; I441L) (protein)
chain: B1 chain with S12F, S15P, T156I, T406M, G428R
notes: as for B1
- Km (wild-type background): 1500 ± 200 µM
- kcat (wild-type background): 79 ± 5 s⁻¹

B8: McoA (wild type) (Aquifex aeolicus VF5; I199T) (protein)
chain: B1 chain with S12F, S15P, L398I, T406M, G428R
notes: as for B1
- Km (wild-type background): 900 ± 200 µM
- kcat (wild-type background): 27 ± 5 s⁻¹

B9: McoA (wild type) (Aquifex aeolicus VF5; P58S) (protein)
chain: B1 chain with S12F, T156I, L398I, T406M, G428R
notes: as for B1
- Km (wild-type background): 2500 ± 200 µM
- kcat (wild-type background): 75 ± 3 s⁻¹

B10: McoA (wild type) (Aquifex aeolicus VF5; F55S) (protein)
chain: B1 chain with S15P, T156I, L398I, T406M, G428R
notes: as for B1
- Km (wild-type background): 2400 ± 400 µM
- kcat (wild-type background): 67 ± 4 s⁻¹

B11: McoA (wild type) (Aquifex aeolicus VF5; F55S/I199T/I441L/P58S/R471G) (protein)
chain: B1 chain with T406M
notes: as for B1
- Km (reversion T449M in 2F4): 3100 ± 900 µM
- kcat (reversion T449M in 2F4): 99 ± 8 s⁻¹
